In the supplement of paper PMC10126150:
± gives the standard deviation of the averaged measurements.

Tested on: ATP
Assay: switch fluorescence ratio, 500 uM ATP over buffer (Cy3 cluster intensity, sum of 5 cycles each) (fold (ratio)); higher = stronger signal-on switching upon ATP binding; sequences stand for … in TCGTCGGCAGCGTCAGATGTGTATAAGAGACAGTTTTTTTTTTTTTTTTTTTTTTTTT…TC
Conditions: aptamer strand: ATP DNA aptamer (quencher-CACCTGGGGGAGTATTGCGGAGGAAGG + anchor), 100 nM annealed; ATP concentration: 500 uM
How it was run: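 The fluorescence ratio divides summed target-cycle Cy3 intensity by summed buffer-cycle Cy3 intensity for each cluster and is averaged per switch-domain sequence. Cy3-labelled switching-strand clusters on a modified Illumina MiSeq flow-cell were annealed to 100 nM quencher-labelled ATP aptamer, then imaged in selection buffer and again after 15 min with 500 uM ATP at 22 °C. Five such cycles were run, with NaOH stripping and re-annealing between them, and clusters outside 100-1000 RFU were excluded.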
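Note: ATP exposure 15 min at 22 °C before imaging.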

Sequence | switch fluorescence ratio
AACTAAGGGA | 0.9949 ± 0.0068
TTTTTTTTAG | 1.07 ± 0.27
ACTGGCCCCG | 1.34 ± 0.41
CGGGTGTGAC | 1.02 ± 0.023
GGGGTACGTG | 1 ± 0.029
TACGATAATC | 1.146 ± 0.011
GCCGTGGGAG | 0.986 ± 0.052
GCTTTATGGG | 0.98 ± 0.027
TCGGACTTTA | 0.998 ± 0.042
ATGGAGGGTG | 1.04 ± 0.031
GGTAGCGTCT | 1.06 ± 0.09
GTGGAAGGTA | 0.991 ± 0.011
GACGGACTTT | 1.143 ± 0.006
GGATTCAGCA | 1.01 ± 0.022
CGCTTAAAAA | 1.02 ± 0.079
ATCATGTGGC | 0.989 ± 0.025
GTGTAAGTAG | 0.997 ± 0.024
AAATGTTATC | 0.986 ± 0.042
GAATAGGGTA | 0.98 ± 0.018
TTGTGCTATT | 1.26 ± 0.32
AAAGGGGGCT | 0.9912 ± 0.0026
GGGAAATGCG | 0.9983 ± 0.0053

Sequence | switch fluorescence ratio
TTGATTAATA | 0.962 ± 0.022
ATTTTGGATG | 0.996 ± 0.025
CTGACAAGGC | 1.61 ± 0.27
GAAGTTATTT | 0.981 ± 0.021
AAGAGCGGAC | 1.11 ± 0.047
TGGGTTTGGA | 1.03 ± 0.049
CTGGGGGTCG | 1 ± 0.025
TTGCTTTTAT | 0.991 ± 0.024
TTGGGACTTG | 0.999 ± 0.054
CCTGCGTAAG | 2.29 ± 0.11
TGGAAGATGT | 1.02 ± 0.03
TTTAAGGGTG | 1.07 ± 0.037
ATTAAGAATT | 0.9986 ± 0.0027
CAGAAAAAAG | 1.01 ± 0.028
AGTTGTATGG | 0.9738 ± 0.0049
TAGTGAGAGC | 1 ± 0.058
ACCTCCAACT | 1.179 ± 0.0092
CAGCTGGGGT | 1.01 ± 0.039
CTGCGGGATT | 1.02 ± 0.026
AGGACTGGTG | 1.01 ± 0.044
TTGGGGAAGT | 0.994 ± 0.039
ATTGGTACTT | 0.986 ± 0.058

Sequence | switch fluorescence ratio
TTTAAAGCTG | 1.06 ± 0.064
TCGCGGGGGG | 0.976 ± 0.034
GACCAAGTCA | 0.997 ± 0.026
GCCGGGGCGG | 1.006 ± 0.0041
GATGAGGATT | 1.01 ± 0.011
ATTTGGGGAA | 0.976 ± 0.021
CGAATTAGTT | 0.978 ± 0.045
AGTAGCGGGT | 0.981 ± 0.026
ACGAATCCTT | 1.04 ± 0.013
GGTATAAGGT | 1.006 ± 0.01
TAAAGAAAGG | 1.02 ± 0.013
ATAGGATGCC | 0.999 ± 0.019
TCCTGTTCCT | 1.02 ± 0.062
TTTAAGATTA | 0.9843 ± 0.0063
AACATGTCTC | 1.01 ± 0.043
GGCTCTGCTA | 1.11 ± 0.047
CGCTTTCACC | 1.218 ± 0.0019
GTTTTTTTCT | 1 ± 0.051
GGGGTAGGGG | 1.01 ± 0.026
TTTTTGGTAA | 1.01 ± 0.021
TTTATAACCT | 1.7 ± 0.61
TACATCTGAA | 0.993 ± 0.023

Sequence | switch fluorescence ratio
TTTCTTAGCT | 1.005 ± 0.0046
GTTACTATTT | 1.01 ± 0.019
GCTGTGAGGT | 0.979 ± 0.0018
AAAGTTTCCA | 0.993 ± 0.025
ACTTCACTCG | 1.42 ± 0.098
ATCTGATGCG | 0.981 ± 0.1
CTATTTCATA | 0.992 ± 0.018
TTTGACTTGT | 1.005 ± 0.0045
GGCGGAAGTA | 1 ± 0.019
TAACGGTCAG | 1.025 ± 0.0095
TAATACTTTG | 1.04 ± 0.024
TACGGTACGG | 1.18 ± 0.04
GATAGAGGGG | 0.984 ± 0.028
CTAATGCGGA | 1.01 ± 0.019
TCGGTTAGTG | 0.991 ± 0.036
TGTAGTGAA | 1.1 ± 0.16
GAGAACGTAG | 0.9817 ± 0.0066
GAGTCCATTG | 1.02 ± 0.026
TTAGAAAAAG | 0.9811 ± 0.0052
